Measurements as given in PMC11139879.

How the values were obtained:
[1] = biological target: T1, pP1192R DNA topoisomerase II, full-length (African swine fever virus, UniProt A0A2X0THW2 1-1192); experiment: cryo-EM; conditions: protein: recombinant; tags: C-terminal 8xHis; chain copies: 2; blunt
[2] = biological target: T1, pP1192R DNA topoisomerase II, …; experiment: EMSA; conditions: protein: recombinant; tags: C-terminal 8xHis; chain copies: 2; label: 5'-Cy5 on O1; four-way junction of O1-O4
[3] = biological target: T1, pP1192R DNA topoisomerase II, …; experiment: size exclusion chromatography; conditions: protein: recombinant; tags: C-terminal 8xHis; chain copies: 2; four-way junction of O1-O4

B1: 52 bp dsDNA (G-segment) (dsDNA)
DNA 1: ATGCATATATATGTATATGTATGTGTGTATATATACACATATATATATATAT
DNA 2: ATATATATATATATGTGTATATATACACACATACATATACATATATATGCAT
binding result [1]: binds

B2: four-way junction DNA, Cy5 (structured_DNA)
DNA 1: CTGGACGCAATCTGACAATGCGCTCATCGTCATCCTCGGCACGCGCCG
DNA 2: CGGCGCGTGCCGAGGATGACGATGAGATAGGCGTTAACGCGGCCTA
DNA 3: TAGGCCGCGTTAACGCCTATTTGCCCGGGAGTACCGGCATTCCT
DNA 4: AGGAATGCCGGTACTCCCGGGCAACGCATTGTCAGATTGCGTCCAG
binding result [2]: binds

B3: four-way junction DNA (structured_DNA)
DNA 1: CTGGACGCAATCTGACAATGCGCTCATCGTCATCCTCGGCACGCGCCG
DNA 2: CGGCGCGTGCCGAGGATGACGATGAGATAGGCGTTAACGCGGCCTA
DNA 3: TAGGCCGCGTTAACGCCTATTTGCCCGGGAGTACCGGCATTCCT
DNA 4: AGGAATGCCGGTACTCCCGGGCAACGCATTGTCAGATTGCGTCCAG
binding result [3]: binds
